In the RNAGym collection of RNA variant scans (doi:10.7554/elife.80360):

B1: Hairpin Ribozyme (parent)
chain: GUCCUCUUUCACGUGCGCGUGAAAGAGAGAAGUGAACCAGAGAAACACACGUUGUGGUAUAUUACCUGGUA

Variants of: B1
Assay: self-cleavage, relative activity (ratio to wild type); higher = more cleavage; co-transcriptional

Row | Variant | self-cleavage
1 | GUACUCUUUCACGUGCGCGUGAAAGAGAGAAGGGAACCAGAGAAACACACGUUGUGGUAUAUUACCUGGUA [C3A U33G] | 0.146
2 | GUACUCUUUCACGUGCGCGUGAAAGAGAGAAGCGAACCAGAGAAACACACGUUGUGGUAUAUUACCUGGUA [C3A U33C] | 0.191
3 | GUACUCUUUCACGUGCGCGUGAAAGAGAGAAGUGAACCAGAGGAACACACGUUGUGGUAUAUUACCUGGUA [C3A A43G] | 0.143
4 | GUACUCUUUCACGUGCGCGUGAAAGAGAGAAGUGAACCAGAGAAACACACGUUGUGGUAUAUUACCUCGUA [C3A G68C] | 0.211
5 | GUACUCUUUCACGUGCGCGUGAAAGAGAGAAGUGAACCAGAGAAACACACGUUGUGGUAUAUUACCUAGUA [C3A G68A] | 0.172
6 | GUGCUCUUUCACGUGCGCGUGAAAGAGAGAAGUGAACCAGAGCAACACACGUUGUGGUAUAUUACCUGGUA [C3G A43C] | 0.168
7 | GUACUCUUUCACGUGCGCGUGAAAGAGAGAAGUGAACGAGAGAAACACACGUUGUGGUAUAUUACCUGGUA [C3A C38G] | 0.156
8 | GUACUCUUUCACGUGCGCUUGAAAGAGAGAAGUGAACCAGAGAAACACACGUUGUGGUAUAUUACCUGGUA [C3A G19U] | 0.582
9 | GUACUCUUUCACGUGCGCCUGAAAGAGAGAAGUGAACCAGAGAAACACACGUUGUGGUAUAUUACCUGGUA [C3A G19C] | 0.535
10 | GUACUCUUUCACGUGCGCGUGAAAGAGAGAAGUGAACCAGAGAAACACACGUUUUGGUAUAUUACCUGGUA [C3A G54U] | 0.403
11 | GUACUCUUUCACGUGCGCGUGAAAGAGAGAAGUAAACCAGAGAAACACACGUUGUGGUAUAUUACCUGGUA [C3A G34A] | 1.07
12 | GUGCUCUUUCACGUGCGCGUGAAAGUGAGAAGUGAACCAGAGAAACACACGUUGUGGUAUAUUACCUGGUA [C3G A26U] | 0.214
13 | GUACUCUUUCACGUGCGCGUGAAAGAGAGAAGUGAACCAGAGAAACACACGUUGUGGUAUAUUACUUGGUA [C3A C66U] | 0.435
14 | GUACUCUUUCACGUGCGCGUGAAAGAGAGAAGUGAACCAGAGAAACACACGUUGUGGUAUAUUACAUGGUA [C3A C66A] | 0.188
15 | GUACUCUUUCACGUGCGCGUGAAAGAGAGAAGUGAACCAGAGAAACACACGUUGUGGUAUAUUACGUGGUA [C3A C66G] | 0.234
16 | GUACUCUUUCACGUGCGCGUGAAAGAGAGAAGUGAAGCAGAGAAACACACGUUGUGGUAUAUUACCUGGUA [C3A C37G] | 0.32
17 | GUACUCUUUCACGUGCGCGUGAAAGAGAGAAGUGAACCAGAGAAACACACAUUGUGGUAUAUUACCUGGUA [C3A G51A] | 0.819
18 | GUGCUCUUUCACGUGCGCGUGAAAGAGCGAAGUGAACCAGAGAAACACACGUUGUGGUAUAUUACCUGGUA [C3G A28C] | 0.541
19 | GUGCUCUUUCACGUGCGCGUGAAAGAGGGAAGUGAACCAGAGAAACACACGUUGUGGUAUAUUACCUGGUA [C3G A28G] | 0.362

Row | Variant | self-cleavage
20 | GUGCUCUUUCUCGUGCGCGUGAAAGAGAGAAGUGAACCAGAGAAACACACGUUGUGGUAUAUUACCUGGUA [C3G A11U] | 0.28
21 | GUACUCUUUCACGUGCGCGUGAAAGAGAGAAGUGAACCAGAGAAACACACGUUGUGGUAUCUUACCUGGUA [C3A A61C] | 0.16
22 | GUACUCUUUCACGUGCGCGUGAAAGAGAGAAGUGAACCAGAGAAACACACGUUGUCGUAUAUUACCUGGUA [C3A G56C] | 0.147
23 | GUGCUCUUUCACGUGCGCGUGAAGGAGAGAAGUGAACCAGAGAAACACACGUUGUGGUAUAUUACCUGGUA [C3G A24G] | 0.294
24 | GUGCUCUUUCACGUGCGCGUGAACGAGAGAAGUGAACCAGAGAAACACACGUUGUGGUAUAUUACCUGGUA [C3G A24C] | 0.238
25 | GUGCUCUUUCACGUGCGCGUGAAUGAGAGAAGUGAACCAGAGAAACACACGUUGUGGUAUAUUACCUGGUA [C3G A24U] | 0.248
26 | GUACUCGUUCACGUGCGCGUGAAAGAGAGAAGUGAACCAGAGAAACACACGUUGUGGUAUAUUACCUGGUA [C3A U7G] | 0.703
27 | GUACUCAUUCACGUGCGCGUGAAAGAGAGAAGUGAACCAGAGAAACACACGUUGUGGUAUAUUACCUGGUA [C3A U7A] | 0.822
28 | GUACUCUUUCACGUGUGCGUGAAAGAGAGAAGUGAACCAGAGAAACACACGUUGUGGUAUAUUACCUGGUA [C3A C16U] | 0.769
29 | GUACUCUUUCACGUGGGCGUGAAAGAGAGAAGUGAACCAGAGAAACACACGUUGUGGUAUAUUACCUGGUA [C3A C16G] | 0.587
30 | GUACUCUUUCACGUGCGCGUGAAAGAGAGAACUGAACCAGAGAAACACACGUUGUGGUAUAUUACCUGGUA [C3A G32C] | 0.114
31 | GUACUCUUUCACGUGCGCGUGAAAGAGAGAAUUGAACCAGAGAAACACACGUUGUGGUAUAUUACCUGGUA [C3A G32U] | 0.0959
32 | GUACUCUUUCACGUGCGCGUGAAAGAGAGAAAUGAACCAGAGAAACACACGUUGUGGUAUAUUACCUGGUA [C3A G32A] | 0.176
33 | GUGCUCUUUCACGUGCGCGUGAAAGAGAGAAGUGAUCCAGAGAAACACACGUUGUGGUAUAUUACCUGGUA [C3G A36U] | 0.174
34 | GUGCUCUUUCACGUGCGCGUGAAAGAGAGACGUGAACCAGAGAAACACACGUUGUGGUAUAUUACCUGGUA [C3G A31C] | 0.0694
35 | GUGCUCUUUCACGUGCGCGUGAAAGAGAGAUGUGAACCAGAGAAACACACGUUGUGGUAUAUUACCUGGUA [C3G A31U] | 0.057
36 | GUGCUCUUUCACGUGCGCGUGAAAGAGAGAGGUGAACCAGAGAAACACACGUUGUGGUAUAUUACCUGGUA [C3G A31G] | 0.0813
37 | GUACUCUUUCACGUGCGCGUGAAAGAGAGAAGUGAACCAGAGAAACACACGUUGUGGUAUAUUACCCGGUA [C3A U67C] | 0.155
38 | GUACUCUUUCACGUGCGCGUGAAAGAGAGAAGUGAACCAGAGAAAGACACGUUGUGGUAUAUUACCUGGUA [C3A C46G] | 0.105
